Measurements as given in article PMC11320999, “APH(3’)-Ie, an aminoglycoside-modifying enzyme discovered in a rabbit-derived Citrobacter gillenii isolate” (Frontiers in Cellular and Infection Microbiology, 2024).

Key:
Assay in all cases: purified protein
Type in all cases: biochemical, Citrobacter gillenii
Settings in all cases: 1 mM ATP, 1 mM MgCl2, 2 mM KCl, 100 mM HEPES pH 7.0, 25 °C
[1] = system: NC[C@@H]1O[C@H](O[C@H]2[C@@H](O)[C@H](O[C@@H]3[C@@H](O)[C@H](N)C[C@H](N)[C@H]3O[C@H]3O[C@H](CO)[C@@H](O)[C@H](O)[C@H]3N)O[C@@H]2CO)[C@H](N)[C@@H](O)[C@@H]1O
[2] = system: NC[C@H]1O[C@H](O[C@H]2[C@H](O[C@@H]3O[C@H](CO)[C@@H](O)[C@H]3O)[C@@H](O)[C@H](N)C[C@@H]2N)[C@H](N)[C@@H](O)[C@@H]1O
[3] = system: NC[C@H]1O[C@H](O[C@H]2[C@H](O)[C@@H](O[C@H]3O[C@H](CO)[C@@H](O)[C@H](N)[C@H]3O)[C@H](N)C[C@@H]2N)[C@H](O)[C@@H](O)[C@@H]1O

APH(3’)-Ie (Citrobacter gillenii)
Km [1]: 7.74 ± 1.44 µM | kcat [1]: 0.86 ± 0.01 s⁻¹ | kcat/Km [1]: 114000 ± 28000 M⁻¹ s⁻¹ | Km [2]: 4.22 ± 0.88 µM | kcat [2]: 1.31 ± 0.09 s⁻¹ | kcat/Km [2]: 323000 ± 81000 M⁻¹ s⁻¹ | Km [3]: 20.99 ± 1.84 µM | kcat [3]: 1.06 ± 0.05 s⁻¹ | kcat/Km [3]: 50800 ± 4400 M⁻¹ s⁻¹
